The nature of this data set: soluble on expression in E. coli; label from the status in PepcDB or PDB records.
As to “MAHHHHHHMASVGRFVQTADPAVTALESPPLPTETRLWRQSPDCQSESDSNRVSGSVLDSVKSNGGPKHASTARLHASQDLPTSVTRFLCLSSSSNSAAAKDLRRQLLVVRDCCVALGNKVKGSELLLLGGSQLSRKVEAMADFNSCLGVIFAASLTFTGETEGVAKDTLCSVVEMLKSAQESGDEKVFRAAVVKIVNRILLCTPLRPPARNAAKETARKSAGKQEQHAEQEPKLEDECLDFLTVEDGVPVLLECVWKRWLRYFEDGYVRYVKKLMAEERQALEAAAAAAAADDYNGEEAQYVDGVSATTTQTISTVPLFTTCQDYWKSPASAYAQFCYILLAIFFVRTKDFSLNYLARVTKLVQYFTYQLEFEDGEPIAVRTDTDAEEDSAQSEDEDDDRTPPQQEGPRKEKQVHSLPMPEYDKAVTQRRFRMSRRSSSQGLVPTVVSFKKAEKPRRHCHKCFFTDALPGDLRPSVEAVRQEEAEAAARDSEEHSHLPVVRRSANLDLSEHSISPQREREQLDACDASMESVQGV”, the “soluble on expression in E. coli” value is listed as “not soluble”.

As for “MGSDKIHHHHHHKVSEAEAAKLGTSLTPMGGEMAASADGSIPAWNGGITAAPAGYKKGDHHPDPYSADKVEYTVTKANLEQYKSLLTPGQIKLFELYPDTFKMNVYKTQRSASAPQWVYDATKANASRAELVQGGNGVVGAAVGIPFPIPQNGLEAIWNHILRFRGVDIETQRNQAAPAKGGGYTLVELSEQLRFEYSQPDMTPEKLKENNTLALFKQVVTQPARLAGTALLVKETLDQEALPRQAWTYNTGQRRVRKAPNVAFDTPGTVSDGLRTTDDYDMFNGSPSRYNWELVGKKEILIPYNDYKLHSDKVKYDDILTPGHINPDLVRWEKHRVWEVKATLKDGMRHIYKTRVFFLDEDSWQVSATDMYDNRDELYRVAFAHGLNYYEVPAHWSTLEVFHDLQSRRYLAIGLDNEGSMYDFDAKLSASDFTPDALRREGVR”, the “soluble on expression in E. coli” value is reported as “not soluble”. The entry for “MTTHEKVILVGVETEKNYQTFSASMEELANLTETANGEVVFVLTQKRPQVDRQTVIGKGKLEELIQLTDAYEADLVIFNHELTPRQNQLLSEALAVRVIDRVQLILDIFALRARSKEGKLQVELAQLDYLLPRLAGQGKQLSRLGGGIGTRGPGETKLESDRRHIRNKILGIRRELKEVTAHRERSRQKRQNSELFQIGLIGYTNAGKSTILNMLTTAGTYSEDQLFATLDPLTKKWQLPQGMEVTLTDTVGFIQDLPTQLIEAFQSTLEESRTMDLLLHVVDASAPDRLQHERTVQTLMKELALENIPCLTVYNKRDQVDSKEFVPTLFPNVLISTKISEDKERLVQAIRAQMMELLEPYQLEISPTDGQLLSELRRMTLMISEEYAENENRYIVKGFAKKKSKWLAESEKEAAALEHHHHHH” is “not soluble”; for “MSLTSKNQFYKPGMLVPVFSAAGLLKNGRYQFLLQQIETLSLLPTEQYAQLYEALVYRFVEFVQVLPIRLDEPLCSLMNEGLLRGVNSLNHYIQNHPEATPLERYALFSAGLLLEVAHAVVNQKIFITDEEGNFIKQWNPFSGPLIDDVETKHYKIMPLSSYYQRNIPSITPILVRQLLPDEGFLWLTSDMRVFSDWMQALRDDEGEGGGRFEHVLQLFKHKNIDGLFNTLPALPVNLQDSPATAHADAFLNWLKEALATNQIKVNTSDAGVHVIPEGVFLEKTGIFKQYIDLHVNVPVNLFTVYQQFGNLFGLTKLSGIDYRFEQLFSEYPDALKRKSKMGFAGLIGIRRASPTREGVLIADPNLIFTRGEIPSATSYLKLSSAQKSQNIPMTEGHHHHHH” it is “soluble”; for “MGSDKIHHHHHHMTSKITRQANASEDSLLRIFTAPEDSTSTLSIIEQKLSQDLAGFLGNSIAALEKPLSEIETDFSAYQIPTEPKFVSDYADEIMQNLVAHSVHTSAPSFIGHMTSALPYFVLPLSKMMVGLNQNLVKIETSKAFTPLERQVLGMMHNLVYQQSDDFYHQWMHSANHSLGAFCSGGTVANITALWIARNRLLQPRGDFKGVTREGMTKALRFYGYDDLAILVSDRGHYSLGKTADLLGIGRDNIISIPTDEHHKVDVAAMRDAAEKLAQQNIKVMAIVGIAGTTETGNVDPLTELAALASELNCHFHVDAAWGGASLLSKKYSHLLKGIELADSVTIDAHKQMYVPMGAGMVLFKDPELAKAIVHHAEYILRVGSKDLGSQTLEGSRPGMAMLVHACLQIIGRDGYEILINNSLEKARYFGSIIDQHADFELVTAPELCLLTYRYVPKSVQAILTTALANQDSALVASINELLDGLTQFIQKHQREQGKSFVSRTRIKPAKYLRQPTTVFRVVLANPLTSHQILHDVLTEQVEIAALDSEYLPQLLAL” it is “not soluble”. With “MKNLINWFEIPVTDMARAIAFYEQVMQISLRRETMDGADLAVFPYAEPGPGGALIKQDDVAPVAQGVVIYLHTADLLASIERVVLAGGKCVLEPMVPGDDIGTIALFIDSEGNRIGLHQPALEHHHHHH” the entry was “not soluble”; with “MSLGAMKRLALLVPERANIASLENARQGFLAANGFLRERGCAPRFDVRLVAATPQVRLDHGRITVQADTVLEAVGEVDLCVVPPIQGDPQPALQENGALIDWLAGYYKNGGEVASLCVGAALLAAGGVLDGQRAVVHWAAQSDFGRLFPAVRWVSDRVVLEANGIYTSGGAFSAAHLVLHLVDKYTDRETAIWCAKLFQLDWSREGHHHHHH”, “soluble”.

For “MVAQARRQGCGERLTTATAVATPATAEQGETTMETVEEFLAHSIKLEQEAALRFGQLADAMDSCGNKEVSKLFRQLADYSRMHQADAQARAGFRDIPQMEPGDFKWPGLESPEAAAIWGTDPFIGRDLALQIALEAETGAFDWYKNVLDTTDNPEIKMLAKEFVEEESGHVAELHRWIALHKAGKPLPMEIVPF”, the “soluble on expression in E. coli” value is “not soluble”. With “MVDIPAGEWQTDACPGWKEGRVCPPEKYLRQTLQIAPFQLSATAVTFAQWDACVDDGGCQEPDTGWAYQTRPNQPPCQAGSPCNYPYDEGWGRGDRPVIHVSWNDAQRYVDWLSQKTGQRYRLPTSEEWEYAAAAGSHARFAWGTKLGKNRGNCNGCGSRWDGKKTAPVASFAPNRFGLYDMVGNVSEWVSTCVPIRSKPGEDNQTCMAYLYRGGAWSYDAKSVGIDTYHSIDADFRANYIGFRVARLEHHHHHH” the entry was “not soluble”; with “MGSDKIHHHHHHMRIEVVNVSHIFHRGTPLEKKALENVSLVINEGECLLVAGNTGSGKSTLLQIVAGLIEPTSGDVLYDGERKKGYEIRRNIGIAFQYPEDQFFAERVFDEVAFAVKNFYPDRDPVPLVKKAMEFVGLDFDSFKDRVPFFLSGGEKRRVAIASVIVHEPDILILDEPLVGLDREGKTDLLRIVEKWKTLGKTVILISHDIETVINHVDRVVVLEKGKKVFDGTRMEFLEKYDPRFFTSKMLVMRRLVLKGEDPFSMSDDELLERVCNS”, “not soluble”. The entry for “PYIEIFEQPRQRGMRFRYKCEGRSAGSIPGEHSTDNNKTFPSIQILNYFGKVKIRTTLVTKNEPYKPHPHDLVGKDCRDGYYEAEFGPERRVLSFQNLGIQCVKKKDLKESISLRISKKINPFNVPEEQLHNIDEYDLNVVRLCFQAFLPDEHGNYTLALPPLISNPIYDNRAPNTAELRICRVNKNCGSVKGGDEIFILCDKVQKDDIEVRFVLDNWEAKGSFSQADVHRQVAIVFRTPPFLRDITEPITVKMQLRRPSDQEVSEPMDFRYLPD” is “soluble”; for “SNAMNFFTSPFSGIPLDQQVTNPNIIVGKHSYYSGYYHGHSFDDCVRYLHPERDDVDKLVIGSFCSIGSGAVFMMAGNQGHRSDWISTFPFFYQDNDNFADARDGFTRSGDTIIGHDVWIGTEAMIMPGVKIGHGAIIASRSVVTKDVAPYEVVGSNPAKHIKFRFSDVEIAMLLEMAWWNWPESWLKESMQSLCSSDIEGLYLNWQSKART” it is “soluble”.

For “MGSDKIHHHHHHMGVKSLVPQELIEKIKLISPGTELRKALDDIINANFGALIFLVDDPKKYEDVIQGGFWLDTDFSAEKLYELSKMDGAIVLSEDITKIYYANVHLVPDPTIPTGETGTRHRTAERLAKQTGKVVIAVSRRRNIISLYYKNYKYVVNQVDFLISKVTQAISTLEKYKDNFNKLLSELEVLELENRVTLADVVRTLAKGFELLRIVEEIRPYIVELGEEGRLARMQLRELTEDVDDLLVLLIMDYSSEEVEEETAQNILQDFITRREPSPISISRVLGYDVQQAAQLDDVLVSARGYRLLKTVARIPLSIGYNVVRMFKTLDQISKASVEDLKKVEGIGEKRARAISESISSLKHRKTSE”, the “soluble on expression in E. coli” value was “not soluble”. The entry for “MKEHIAAVHKQTIAQAAERLFLERGFDGTSISDICAASGYSRRTVYRYFDTKEEILYYIVANGLEQLRDRLTDIVQAEQPFLAKYEHICKAMRAYYEHCPISARAVHQFQPKALETVTPTMETIFSLGTAINDALARWIEQGIAEGVVRETADVMMTVYVFSAQLHALFDLVETKGAFLLPTLGKTKEQFFAYGQKMIFNSLAKEPLL” is “soluble”; for “MGSDKIHHHHHHMLRGINRQIIFEDDEDYQNFMGTIKETQEKSGYEVYAYCLMSNHVHLLLKEVTEDLGIAFRRIGAIYVYWYNWKYSRRGHLFQARYKSEAVETDSYFLTVLRYIHQNPYKAGIVKNIADYPWSSYGEYVGEPRICDVEFGLNMFSTNRTNAVKLFEEFNLAENQDQCLDYNQDVRLNDTEASNFIRSISDVQSPTEIQGFEKDKRNEVIKKCKSKGLSIRQIERLTGVSFGVIRTI” it is “not soluble”; for “SLDTTRPLSWDFQSQLMSNLKILYCLNMLKLSNWYFGGIMKVYGLFGINENAINDFIENHIKTFTIINALNLETVKNLKEGDLVFITSTLREDLRNGTEGILGRVINVSLVPQMINGFEEKEIIAGRVQLEMLGFAKCVKYESIHVEITFRMY” it is “not soluble”. With “MKPKVVRYLDEGEFPLAEEEALRLYRAMRRARFFDEKALTLQRQGRLGVYAPFMGQEAAQVGVALALEERDWVVPSYRESAMLLAKGLPIHTLILYWRAHPAGWRFPEGVRAVNPYIPIATQIPQAVGLALAGRYRGEDWVVATSIGDGGTSEGDFHEGLNFAAVFGAPVVFLVQNNGYAISVPKSRQMKVDYVARRAEGYGMPGVVVDGNDAFAVYLEAKKAVERARKGEGPTLLEALTYRLAPHTTSDDPSRYRSKEEEEAWRAKDPILRLRKALEGRGLWGEEAEKALLLELEEEFQRELALADEAPEPRPEEIVEHVYAEMGPDQRRAWEALRRGLHVEEVE” the entry was “soluble”; with “MPEEKQKKSVLEKALKRIEENFGKGSIMILGDETQVQPVEVIPTGSLAIDIATGVGGYPRGRIVEIFGQESSGKTTLALHAIAEAQKMGGVAAFIDAEHALDPVYAKNLGVDLKSLLISQPDHGEQALEIVDELVRSGVVDLIVVDSVAALVPRAEIEGAMGDMQVGLQARLMSQALRKIAGSVNKSKAVVIFTNQIRMKIGVMFGSPETTTGGLALKFYATMRMEVRRGEPIKEGKDVIGNVISVKIVKNKVAPPFKTAQTYIIYGKGIDREYELFNIAVNEGIVDRKGSWYYYTTLKGEEVSLGQGSSNAVQFLKDNPEIAGEIERRIREKYGLLSVEKEEQRKEKKSSGEEAS”, “soluble”. With “MGSSHHHHHHGGTGENLYFQGGSGTAPPGSPAFCPPPAQYQYAYVPAASYVAASSCVGRGNNGGPLPYPLQPEAAPGYGEEQTSLLWNTRLFGLSTDVPSAMDSVMCIYCISSTHFNYLYRQQRGMFDPITAALLCFDVFWCMQLWPVVTPLSSITLHTLITRRELRKRYGLVGNDLFVKMDRLNADTAAATEAGETGAQAEEATTAEVESQPHRARDSDVTAEAAAAEPAGTGEAAAEVISVTPPATAPSEAAAPRTGESDVMAHTPRRVCHGLRS” the entry was “not soluble”.

The values are drawn from the DeepSol protein solubility set.
